We go through 1 molecule from article PMC5097169, “Acetylation of histone H4 lysine 5 and 12 is required for CENP-A deposition into centromeres” (Nature Communications, 2016).

The target of this experiment is T1, Flag RbAp46 (Xenopus, recombinant) (Xenopus, UniProt Q8AVH1 1-425).
T1 construct: RbAp46, Xenopus (xRbAp46); also called xRbAp46
Put plainly: pull-down; GST-histone tails coupled to NHS Sepharose (20 μl resin) with 0.7 μg Hat1, RbAp46 or RbAp48, or RbAp46 with Hat1, in 150 μl 20 mM K-HEPES pH 7.4, 50 mM KCl, 0.1% Tween-20, 5 mM DTT; 2 h at 4 °C; washes with 300 mM KCl; coomassie-stained gel. Conditions: both partners purified.

T1 sequence (Q8AVH1 whole entry): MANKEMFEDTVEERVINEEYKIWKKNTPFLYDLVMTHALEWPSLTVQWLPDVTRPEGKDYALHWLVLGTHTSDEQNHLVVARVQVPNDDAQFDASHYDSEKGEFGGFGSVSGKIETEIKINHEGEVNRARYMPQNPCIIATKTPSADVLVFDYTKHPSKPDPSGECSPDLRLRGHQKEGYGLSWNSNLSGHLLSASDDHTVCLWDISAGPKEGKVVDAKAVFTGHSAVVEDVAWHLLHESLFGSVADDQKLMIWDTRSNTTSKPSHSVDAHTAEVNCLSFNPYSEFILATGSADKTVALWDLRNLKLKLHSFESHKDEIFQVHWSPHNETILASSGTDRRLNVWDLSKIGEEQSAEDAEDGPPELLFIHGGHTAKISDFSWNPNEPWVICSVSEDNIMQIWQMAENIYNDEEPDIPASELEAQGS

B1: GST fusion to Xenopus laevis CENP-A amino terminus (amino acids 1–50) (domain or fragment, UniProt Q569M3 1-50, looked up)
chain: MRPGSTPPSRRKSRPPRRVSPPLPTTSRTSPRRPHAQQQRRASRASPKKR
notes: CENP-A, Xenopus laevis, amino terminus, amino acids 1–50, in pGEX-6P-1; also called GST-CENP-A N-terminal tail; xCENP-A N-terminus
Regarding B1, the binding result is reported as “binds”.
